Source: US5705608, “Human IL-2 receptor γ chain molecule” (Ajinomoto Co., Inc., dated 1998)

Legend:
IL-2 labelled with 125I [1] = biological target: T1, IL-2 labelled with 125I (human, UniProt P60568, 125I label by the chloramine-T method); assay: 125I-IL-2 binding to Lβγ-9 cells at 4° C., Scatchard plot
Procedure: (§1) The radioactivity of ^125I-IL-2 bound or not bound to the cells was determined. The value for the background or the binding radioactivity in the case of addition of unlabelled IL-2 was subtracted from each of the measurements to calculate the binding amounts, the binding ability and the binding affinity of IL-2 to the receptor as determined by a Scatchard plot.

IL-2 labelled with 125I [2] = biological target: T1, IL-2 labelled with 125I; assay: 125I-IL-2 binding to Lαβγ-4 cells at 4° C., Scatchard plot, biphasic, low affinity component
Procedure: as §1

IL-2 labelled with 125I [3] = biological target: T1, IL-2 labelled with 125I; assay: 125I-IL-2 binding to Lαβγ-4 cells at 4° C., Scatchard plot, biphasic, high affinity component
Procedure: as §1

| Binder | Kd (IL-2 labelled with 125I [1]) | Kd (IL-2 labelled with 125I [2]) | Kd (IL-2 labelled with 125I [3]) |
| --- | --- | --- | --- |
| IL-2 receptor β and γ chains on Lβγ-9 cells (L929 cells with IL-2 receptor β and γ chain expression) (receptor) chain 1: AVNGTSQFTCFYNSRANISCVWSQDGALQDTSCQVHAWPDRRRWNQTCELLPVSQASWACNLILGAPDSQKLTTVDIVTLRVLCREGVRWRVMAIQDFKPFENLRLMAPISLQVVHVETHRCNISWEISQASHYFERHLEFEARTLSPGHTWEEAPLLTLKQKQEWICLETLTPDTQYEFQVRVKPLQGEFTTWSPWSQPLAFRTKPAALGKDTIPWLGHLLVGLSGAFGFIILVYLLINCRNTGPWLKKVLKCNTPDPSKFFSQLSSEHGGDVQKWLSSPFPSSSFSPGGLAPEISPLEVLERDKVTQLLLQQDKVPEPASLSSNHSLTSCFTNQGYFFFHLPDALEIEACQVYFTYDPYSEEDPDEGVAGAPTGSSPQPLQPLSGEDDAYCTFPSRDDLLLFSPSLLGGPSPPSTAPGGSGAGEERMPPSLQERVPRDWDPQPLGPPTPGVPDLVDFQPPPELVLREAGEEVPDAGPREGVSFPWSRPPGQGEFRALNARLPLNTDAYLSLQELQGQDPTHLV chain 2: LNTTILTPNGNEDTTADFFLTTMPTDSLSVSTLPLPEVQCFVFNVEYMNCTWNSSSEPQPTNLTLHYWYKNSDNDKVQKCSHYLFSEEITSGCQLQKKEIHLYQTFVVQLQDPREPRRQATQMLKLQNLVIPWAPENLTLHKLSESQLELNWNNRFLNHCLEHLVQYRTDWDHSWTEQSVDYRHKFSLPSVDGQKRYTFRVRSRFNPLCGSAQHWSEWSHPIHWGSNTSKENPFLFALEAVVISVGSMGLIISLLCVYFWLERTMPRIPTLKNLEDLVTEYHGNFSAWSGVSKGLAESLQPDYSERLCLVSEIPPKGGALGEGPGASPCNQHSPYWAPPCYTLKPET | 4.6 nM | – | – |
| IL-2 receptor α, β and γ chains on Lαβγ-4 cells (L929 with IL-2 receptor α, β and γ chain expression) (receptor) chain 1: ELCDDDPPEIPHATFKAMAYKEGTMLNCECKRGFRRIKSGSLYMLCTGNSSHSSWDNQCQCTSSATRNTTKQVTPQPEEQKERKTTEMQSPMQPVDQASLPGHCREPPPWENEATERIYHFVVGQMVYYQCVQGYRALHRGPAESVCKMTHGKTRWTQPQLICTGEMETSQFPGEEKPQASPEGRPESETSCLVTTTDFQIQTEMAATMETSIFTTEYQVAVAGCVFLLISVLLLSGLTWQRRQRKSRRTI chain 2: AVNGTSQFTCFYNSRANISCVWSQDGALQDTSCQVHAWPDRRRWNQTCELLPVSQASWACNLILGAPDSQKLTTVDIVTLRVLCREGVRWRVMAIQDFKPFENLRLMAPISLQVVHVETHRCNISWEISQASHYFERHLEFEARTLSPGHTWEEAPLLTLKQKQEWICLETLTPDTQYEFQVRVKPLQGEFTTWSPWSQPLAFRTKPAALGKDTIPWLGHLLVGLSGAFGFIILVYLLINCRNTGPWLKKVLKCNTPDPSKFFSQLSSEHGGDVQKWLSSPFPSSSFSPGGLAPEISPLEVLERDKVTQLLLQQDKVPEPASLSSNHSLTSCFTNQGYFFFHLPDALEIEACQVYFTYDPYSEEDPDEGVAGAPTGSSPQPLQPLSGEDDAYCTFPSRDDLLLFSPSLLGGPSPPSTAPGGSGAGEERMPPSLQERVPRDWDPQPLGPPTPGVPDLVDFQPPPELVLREAGEEVPDAGPREGVSFPWSRPPGQGEFRALNARLPLNTDAYLSLQELQGQDPTHLV chain 3: LNTTILTPNGNEDTTADFFLTTMPTDSLSVSTLPLPEVQCFVFNVEYMNCTWNSSSEPQPTNLTLHYWYKNSDNDKVQKCSHYLFSEEITSGCQLQKKEIHLYQTFVVQLQDPREPRRQATQMLKLQNLVIPWAPENLTLHKLSESQLELNWNNRFLNHCLEHLVQYRTDWDHSWTEQSVDYRHKFSLPSVDGQKRYTFRVRSRFNPLCGSAQHWSEWSHPIHWGSNTSKENPFLFALEAVVISVGSMGLIISLLCVYFWLERTMPRIPTLKNLEDLVTEYHGNFSAWSGVSKGLAESLQPDYSERLCLVSEIPPKGGALGEGPGASPCNQHSPYWAPPCYTLKPET | – | 2.4 nM | 0.077 nM |
